In series [1] the test system is CC(=O)N[C@H]1[C@H](Oc2ccc3c(C)cc(=O)oc3c2)O[C@H](CO)[C@@H](O[C@@H]2O[C@H](CO)[C@H](O)[C@H](O)[C@H]2O)[C@@H]1O[C@@H]1O[C@@H](C)[C@@H](O)[C@@H](O)[C@@H]1O. The experiment in a line: α2-3-sialyltransferase activity, Le^xβMU as acceptor. As to conditions: other: apparent, acceptor, CMP-Neu5Ac 1 mM, CAPSO pH 9.5, 37° C. The class given is biochemical, Pasteurella multocida. As for the experimental part: (§1) Site-directed mutagenesis, expression and purification of PmST1 mutants. Site-directed mutagenesis was performed using the QuikChange multi-site-directed mutagenesis kit from Stratagene according to the manufacturer's protocol. The primers used were 5′-[…]-3′ (SEQ ID NO:35) for M144D; 5′-[…]a[…] -3′ (SEQ ID NO:36) for M144H; 5′-[…]-3′ (SEQ ID NO:37) for A35D; and 5′-[…]-3′ (SEQ ID NO:38) for A35H. The expression and purification of the mutants were performed as previously described for the WT PmST1 .
(§2) Kinetics of the α2-3-sialyltransferase activity of PmST1 mutants by HPLC analysis. With LacβMU as the acceptor substrate, the reactions were performed in duplicate at 37° C. for 10 min (M144D) or 4 min (M144H) in a reaction mixture (10 μL) containing Tris-HCl (100 mM, pH 8.5), an enzyme (5 μg mL^−1), and different concentrations (0.2, 0.5, 1.0, 2.0, and 5.0 mM) of LacβMU with a fixed concentration (1 mM) of CMP-Neu5Ac or different concentrations (0.2, 0.5, 1.0, 2.0, 5.0, and 10.0 mM) of CMP-Neu5Ac with a fixed concentration (1 mM) of LacβMU. With Le^xβMU as the acceptor substrate, the reactions were carried out in duplicate at 37° C. for 9 min (M144D) or 10 min (M144H) in a reaction mixture (10 μL) containing CAPSO (100 mM, pH 9.5), an enzyme (M144D, 39 μg mL^−1 or M144H, 5 μg mL^−), and various concentrations of Le^xβMU (1.0, 5.0, 10.0, 15.0, 25.0, and 35.0 mM) with a fixed concentration (1 mM) of CMP-Neu5Ac or various concentrations (0.2, 0.5, 1.0, 2.0, 5.0, 10.0, 20.0, and 40.0 mM) of CMP-Neu5Ac with a fixed concentration (1 mM) of Le^xβMU. Reactions were stopped by adding 10 μL of pre-chilled ethanol. The mixtures were incubated on ice for 30 min and centrifuged at 13,000 rpm for 5 min. The supernatants were diluted with 25% acetonitrile and kept on ice until aliquots of 8 μL were injected and analyzed by the Shimadzu LC-6AD system equipped with a membrane on-line degasser, a temperature control unit, and a fluorescence detector (Shimadzu RF-10AXL). A reverse-phase Premier C18 column (250×4.6 mm i.d., 5 μm particle size, Shimadzu) protected with a C18 guard column cartridge was used. The mobile phase was 25% acetonitrile. The fluorophore (MU)-labeled compounds were detected by excitation at 325 nm and emission at 372 nm. The apparent kinetic parameters were obtained by fitting the experimental data (the average values of duplicate assay results) into the Michaelis-Menten equation using Grafit 5.0.

The test system of series [2] is CC(=O)N[C@H]1[C@H]([C@H](O)[C@H](O)CO)O[C@](OP(=O)(O)OC[C@H]2O[C@@H](n3ccc(N)nc3=O)[C@H](O)[C@@H]2O)(C(=O)O)C[C@@H]1O. The series is described as above. The class given is biochemical, Pasteurella multocida. To be noted: other: apparent, donor, Le^xβMU 1 mM, CAPSO pH 9.5, 37° C. As for the experimental part:
as §1, §2

The test system of series [3] is Cc1cc(=O)oc2cc(O[C@@H]3O[C@H](CO)[C@@H](O[C@@H]4O[C@H](CO)[C@H](O)[C@H](O)[C@H]4O)[C@H](O)[C@H]3O)ccc12. The experiment in a line: α2-3-sialyltransferase activity, LacβMU as acceptor. To be noted: other: apparent, acceptor, CMP-Neu5Ac 1 mM, Tris-HCl pH 8.5, 37° C. The class given is biochemical, Pasteurella multocida. How it is done:
as §1, §2

The test system of series [4] is CC(=O)N[C@H]1[C@H]([C@H](O)[C@H](O)CO)O[C@](OP(=O)(O)OC[C@H]2O[C@@H](n3ccc(N)nc3=O)[C@H](O)[C@@H]2O)(C(=O)O)C[C@@H]1O. Described as above. As to conditions: other: apparent, donor, LacβMU 1 mM, Tris-HCl pH 8.5, 37° C. The class given is biochemical, Pasteurella multocida. As for the experimental part:
as §1, §2

Series [5] concerns CC(=O)N[C@H]1[C@H]([C@H](O)[C@H](O)CO)O[C@@](O[C@H]2[C@@H](O)[C@@H](CO)O[C@@H](O[C@H]3[C@H](O)[C@@H](O)[C@H](Oc4ccc5c(C)cc(=O)oc5c4)O[C@@H]3CO)[C@@H]2O)(C(=O)O)C[C@@H]1O. The experiment in a line: α2-3-sialidase activity, Neu5Acα2-3LacβMU as substrate. The class given is biochemical, Pasteurella multocida. To be noted: other: apparent, MES pH 5.5, 37° C. As for the experimental part:
as §1
Kinetics of the α2-3-sialidase activity of PmST1 mutants. The reactions were performed in duplicate in a total volume of 10 μL at 37° C. for 60 min (M144D) or 15 min (M144H) in MES buffer (100 mM, pH 5.5) containing Neu5Acα2-3LacβMU (0.4, 1, 2, 4, 10, 20, 40 and 60 mM) and an enzyme (M144H, 1.36 mg mL^−1 or M144D, 1.05 mg mL^−1). Sample treatment after the reaction and analysis were carried out by HPLC similar to that described above for the α2-3-sialyltransferase assays.

Series [6] has as its system CC(=O)N[C@H]1[C@H]([C@H](O)[C@H](O)CO)O[C@](OP(=O)(O)OC[C@H]2O[C@@H](n3ccc(N)nc3=O)[C@H](O)[C@@H]2O)(C(=O)O)C[C@@H]1O. The experiment in a line: CMP-Neu5Ac (donor) hydrolysis activity, capillary electrophoresis. As to conditions: other: apparent, Tris-HCl pH 8.5, 37° C., 15 min. The class given is biochemical, Pasteurella multocida. As for the experimental part:
as §1
Kinetics of the donor hydrolysis activity of PmST1 and mutants by capillary electrophoresis analysis. […] The reactions were stopped by adding 10 μL of pre-chilled ethanol. The mixtures were incubated on ice for 30 min and centrifuged at 13,000 rpm for 5 min. The supernatants were diluted with borate buffer (25 mM, pH 9.5) and aliquotes of 5 μL each were injected to a Beckman Coulter P/ACE™ MDQ Capillary Electrophoresis system equipped with a capillary (60 cm×75 μm i.d.) and monitored at 254 nm. The apparent kinetic parameters were obtained by fitting the experimental data (the average values of duplicate assay results) into the Michaelis-Menten equation using Grafit 5.0.

Series [7] is described as follows: Apparent kinetics of the α2-3-sialidase activity (HPLC, fluorescent sialoside substrate). As to conditions: substrate Neu5Acα2-3LacβMU. It counts as biochemical. As for the experimental part: All the sialidase and α2-3-sialyltransferase assays were performed in an HPLC system. Reactions were stopped by adding 10 μL of ethanol. […] The mobile phase was 25% acetonitrile.
Kinetics of the α2-3-sialidase activity of PmST1 mutants.

Series [8] is described as follows: Thermal stability studies by HPLC. It counts as physicochemical. To be noted: incubating at 37° C. for up to 2 hours. As for the experimental part:
Stability studies by HPLC. Thermal stability studies were carried out by incubating wild-type PmST1 or E271F/R313Y mutant solution (20 μg mL^−1) at 37° C. Samples were withdrawn at various time intervals for enzyme activity assays.

A short description of series [9]: HPLC time course of PmST1-catalyzed α2-3-sialylation of Le^xβMU. It counts as biochemical. As to conditions: Le^xβMU 1 mM, one equivalent of CMP-Neu5Ac. The source says: Numbers in parentheses represent the % consumption of CMP-Neu5Ac by capillary electrophoresis (CE) assays.
In fact, donor hydrolysis has been observed in other glycosyltransferase-catalyzed reactions that lead to lower synthetic yields. […] Two recent papers discussed the donor hydrolysis activities of human blood group A and B glycosyltransferases (GTA and GTB) which are Mn^2+-dependent and the UDP-Gal hydrolysis activity of GTB is increased in the presence of an acceptor substrate analog. Nevertheless, the effect of donor hydrolysis of glycosyltransferases on glycosylation processes has not been investigated in detail. In addition, no strategy has been reported for improving the yields of glycosyltransferase-catalyzed reactions by decreasing donor hydrolysis activity.

A short description of series [10]: α2-3-sialidase activity assay with sialyl Le^x substrate (HPLC). The class given is biochemical. As to conditions: substrate 1 mM, enzyme 4 mg mL^−1, MES pH 5.5, 37° C. How it is done: The α2-3-sialidase activity assays of PmST1 and mutants. The reactions were carried out in duplicate in a total volume of 10 μL at 37° C. for 20 hr in MES buffer (100 mM, pH 5.5) containing Neu5Acα2-3Le^xβMU (1 mM) and an enzyme (4 mg mL^−1). Aliquots of 1 μL were withdrawn at 1 hr, 6 hr and 20 hr, and analyzed by HPLC as described above for the α2-3-sialyltransferase assays.

The source of these data is US9255257B2, “PmST1 mutants for chemoenzymatic synthesis of sialyl lewis X compounds” (THE REGENTS OF THE UNIVERSITY OF CALIFORNIA, priority 2011, dated 2016).

Where a chain is given by its changes, count along the chain named. Names may count otherwise.

As to “Pasteurella multocida PmST1 mutant M144D of SEQ ID NO: 13 (M120D of Δ24PmST1, SEQ ID NO: 3) (Pasteurella multocida; M144D)”, the Km in series [1] (M144D) is listed as 13 ± 2 mM; in series [2] (M144D), 2.1 ± 0.1 mM; in series [3] (M144D), 12 ± 1 mM; in [4] (M144D), 0.30 ± 0.05 mM; in series [5] (M144D, 60 min) it was 20 ± 2 mM; in series [6] (M144D) it was 7.3 ± 0.5 mM.

Turning to “Pasteurella multocida PmST1 mutant M144H of SEQ ID NO: 13 (M120H of Δ24PmST1, SEQ ID NO: 5) (Pasteurella multocida; M144H)”, the Km in series [1] (M144H) is on record as 8.1 ± 0.9 mM; in [2] (M144H), 0.4 ± 0.05 mM; in series [3] (M144H), 0.79 ± 0.04 mM; in series [4] (M144H), 0.81 ± 0.06 mM; in [5] (M144H, 15 min) it was 1.7 ± 0.3 mM; in [6] (M144H), 13 ± 3 mM.

B1: E271F/R313Y (protein, listed as Pasteurella multocida)
chain: MKNRRLNFKLFFLIIFSLFSTLSWSKTITLYLDPASLPALNQLMDFTQNNEDKTHPRIFGLSRFKIPDNIITQYQNIHFVELKDNRPTEALFTILDQYPGNIELNIHLNIAHSVQLIRPILAYRFKHLDRVSIQQLNLYDDGSMEYVDLEKEENKDISAEIKQAEKQLSHYLLTGKIKFDNPTIARYVWQSAFPVKYHFLSTDYFEKAEFLQPLKEYLAENYQKMDWTAYQQLTPEQQAFYLTLVGFNDEVKQSLEVQQAKFIFTGTTTWFGNTDVREYYAQQQLNLLNHFTQAEGDLFIGDHYKIYFKGHPYGGEINDYILNNAKNITNIPANISFEVLMMTGLLPDKVGGVASSLYFSLPKEKISHIIFTSNKQVKSKEDALNNPYVKVMRRLGIIDESQVIFWDSLKQL
modifications: PmST1 wild-type glycosyltransferase family 80 (GT80), GT80 sialyltransferase, Pm0188Ph
In the case of B1, in series [7], the “decrease in sialidase kcat (turnover number) compared to wild-type PmST1” value was 277 fold, the “decrease of α2-3-sialidase activity (catalytic efficiency kcat/Km) compared to wild-type PmST1” value is 6,333 fold and the “increase in sialidase Km value compared to wild-type PmST1” value was 22.5 fold. The “thermal stability of α2-3-sialyltransferase activity (FIG. 3, in words)” value in series [8] was “did not decrease their activities significantly”.

B2: WT: multifunctional α2-3-sialyltransferase from Pasteurella multocida (PmST1), wild type sequence SEQ ID NO: 13; control enzyme (protein, listed as Pasteurella multocida)
chain: B1 chain with F271E, Y313R
modifications: PmST1 wild-type glycosyltransferase family 80 (GT80), GT80 sialyltransferase, Pm0188Ph
notes: control enzyme
In the case of B2, the “time to reach yield plateau” value in series [9] is given as at most 2 min. Also, the “yield plateau of sialylation of Le^xβMU” value in [9] was 1.1-1.3%. Further, the “thermal stability of α2-3-sialyltransferase activity (FIG. 3, in words)” value in series [8] is given as “did not decrease their activities significantly”. Besides, the “Neu5Ac cleaved from Neu5Acα2-3Le^xβMU” value was 2.0% in series [10] (1 h), 7.0% in series [10] (6 h) and 7.5% in series [10] (20 h).

The Km is the substrate concentration at which the rate is half of its maximum.
